In the supplement of paper PMC10567573:

B1: SEPHS2 (parent)
chain: KASGRFGLLQGTSAETSGGLLICL
B2: KLHL14 (parent)
chain: WLYCYDPVMDVWARKQDMNTKRAI
B3: NR2F2 (parent)
chain: VAHVESLQEKSQCALEEYVRSQYP

Variants of: B1
Assay: protein stability index of a GFP-peptide fusion (GPS, HEK-293T) (PSI 1-6); higher = more stable
Settings: c terminus: a fixed tail appended
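Note: lentivirally expressed fusions sorted by FACS into six bins by GFP to DsRed ratio, PSI derived from sequencing read proportions per bin multiplied by bin number.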

Protein stability index: each site, then its substitutions
F6: L 2.48; E 2.37; W 4.73; S 1.81; I 2.31; Y 1.75; V 1.57; K 1.79; Q 2.79; D 1.03; T 3.52; M 2.44
G4: L 2.01; T 3.11; D 2.9; S 3.04; K 3.51; P 1.95; E 3.09; A 4.01; Q 2.76
T16: M 2.06; I 2.5; S 1.61; H 1.88; R 2.58; F 3.47
S3: D 2.07; A 1.55; P 3.31; T 3.36; H 4.72; E 2.76; M 1.51; R 1.82; F 1.71
L21: Y 1.32; G 1.53; T 2.38; V 2.08; K 1.45; Q 2.08; R 1.57; P 2.44; M 2.35; E 1.38; D 2.12; N 2.94; A 1.04; S 2.68; H 2.21
C23: F 3.71; T 1.32; A 1.93; M 1.49; P 2.02; Q 1.73; S 1.81; K 1.53; H 4.17; D 2.02; N 1.79
K1: W 2.52; T 1.69; D 2.07; G 1.44; L 2.28; S 3.13; N 1.95; E 2.6; C 2.13
T12: F 3.31; E 2.52; L 3.67
L9: P 2.32; V 1.74; E 2.76; R 2.98; I 2.41; Y 2.09; N 1.78
G7: L 3.5; Y 2.71; A 3.63; N 2.13; I 2.32; H 2.78; T 1.88; D 3.42; W 2.21; S 2.55; K 3.27
E15: D 2.1; C 2.82; T 2.48; I 1.91; A 2.02; W 1.66; R 1.37; Y 4.55
Q10: V 3.11; P 2.19; I 3.54; M 3.87; S 1.71; N 2.95; E 2.2
G18: P 2.98; Q 2.5; C 3.15; K 2.4; N 2.2; D 2.67
A2: D 2.81; V 3.69; W 2.41; Y 2.29; G 1.38; Q 3.26; S 3.5
R5: V 3.1; I 3.36; W 1.66; L 3.49; C 2.27; K 2.97; A 5.51; T 3.23; H 3.5; D 2.61; F 3.72
G11: K 3.04; Q 2.54; M 2.37; R 3.92; H 2.12; S 1.86; N 2.76; T 4.7
L24: F 4.05; Y 2.62; P 2.8; H 1.89; T 2.43; D 2.99; E 3.13; K 2.67; A 1.24; N 2.11; S 1.9; R 2.55
L8: K 3.37; G 3.65; W 2.08; V 3.22; M 2.26; I 2.17; C 3.4; Y 1.85; F 2.18; A 2.02
S13: Q 1.5; V 4.84; M 2.24; D 2.01; K 2.7
G19: Y 1.89; Q 2.1; T 1.74; A 3.71; I 2.54; L 2.19; R 2.62; H 1.74; M 2.76
A14: T 1.72; Q 3.85; N 2.93; H 2.43; L 2.44; E 2.62; C 1.81; Y 2.24
S17: G 2.08; W 3.02; L 1.18; N 2.67; F 2.78
I22: K 2.14; Y 1.71; W 1.58; M 1.28; C 2.02; P 3.43; G 2.47; E 2.64; A 1.82; T 2.33; S 2.83; D 1.72; H 2.42; F 4.06
L20: E 1.82; Q 2.58; H 2.07; K 1.95; P 2.39; G 1.96; S 1.94; N 2.63; A 2.87

Variants of: B2
Assay: as above
Settings: c terminus: a fixed tail appended

Protein stability index of substitutions, site by site:
T20: P 2; K 2.15; S 1.99; D 2.15; L 2.28; H 1.88; I 1.91; M 1.7; V 2.11; A 2.07; C 1.62; W 2.34; N 1.85; F 1.44; Q 1.99; E 1.95; G 2.57; Y 2.02; R 1.77
R22: N 1.82; I 1.74; S 2.12; K 2; D 2.13; E 2.19; T 1.91; C 2.15; V 1.72; P 1.8; A 2.32; L 1.83; H 2.01; Y 2.01; W 1.69; Q 1.77; G 1.69; M 1.88; F 1.51
N19: W 2.53; G 2; V 2.55; R 1.83; Q 2.2; H 1.57; P 1.93; T 1.88; F 1.52; Y 1.72; S 1.83; K 2.02; M 2.13; L 2.05; I 1.57
A23: I 1.57; E 2.33; P 1.58; N 1.7; F 2.24; G 1.51; T 1.76; C 1.78; K 1.97; M 2.22; L 1.6; Y 1.92; S 1.97; D 2.22; V 1.63; Q 2.11; R 2.62; W 1.37; H 2.02
K21: M 2.08; H 1.94; T 1.83; P 1.58; A 1.78; D 2.34; L 1.88; Q 1.86; R 1.83; N 1.81; W 2.2; Y 1.92; C 2.23; F 1.86; S 1.91; I 1.71; G 2.61; E 1.91; V 1.91
I24: S 2.86; F 1.42; A 2.36; L 2.25; N 2.29; G 2.13; D 2.92; M 2.16; Y 2.45; T 1.87; E 2.31; W 2.39; P 2.68; Q 2.79; R 1.4; C 1.99; V 2.53; K 2.44; H 2.63

Variants of: B3
Assay: as above
Settings: c terminus: a fixed tail appended

Protein stability index, by site and new letter:
Y18: E 4.7; N 3.91
E9: R 2.53
K10: F 2.08
Q12: R 3.77; H 2.88
S21: D 3.77
V19: F 3.34
A14: L 2.88
E17: I 2.3; K 3.81; D 3.44
R20: W 2.56
